The values below come from patent publication US20140105926A1 (GlaxoSmithKline, published 2014).

This test addresses T1, Vitronectin from human plasma (SIGMA-ALDRICH) (human, UniProt P04004 20-478).
T1 construct: mature; Bought protein from human plasma. 'mature' is inferred from the plasma origin
The test is described as follows: ELISA: plate coated with fusion protein (10 ug/ml), human plasma vitronectin titrated from 10 ug/ml, detected with peroxidase sheep anti-human vitronectin.

T1 sequence (P04004 20-478): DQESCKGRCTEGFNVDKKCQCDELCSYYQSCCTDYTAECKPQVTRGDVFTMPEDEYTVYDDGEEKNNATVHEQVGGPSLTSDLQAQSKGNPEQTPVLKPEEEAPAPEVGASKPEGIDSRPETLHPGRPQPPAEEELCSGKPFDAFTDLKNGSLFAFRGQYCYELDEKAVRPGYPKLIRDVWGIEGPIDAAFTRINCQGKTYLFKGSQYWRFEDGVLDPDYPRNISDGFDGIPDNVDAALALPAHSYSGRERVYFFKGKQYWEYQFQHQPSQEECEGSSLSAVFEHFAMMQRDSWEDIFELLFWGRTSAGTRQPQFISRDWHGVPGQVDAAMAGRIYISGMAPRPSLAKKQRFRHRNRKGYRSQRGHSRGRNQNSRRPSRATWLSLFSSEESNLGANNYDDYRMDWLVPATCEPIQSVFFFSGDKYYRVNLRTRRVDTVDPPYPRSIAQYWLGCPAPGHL

B1: purified LVL317 PE-PilA fusion protein (other)
chain: QIQKAEQNDVKLAPPTDVRSGYIRLVKNVNYYIDSESIWVDNQEPQIVHFDAVVNLDKGLYVYPEPKRYARSVRQYKILNCANYHLTQVRTDFYDEFWGQGLRAAPKKQKKHTLSLTPDTTLYNAAQIICANYGEAFSVDKKGGTKKAAVSELLQASAPYKADVELCVYSTNETTNCTGGKNGIAADITTAKGYVKSVTTSNGAITVKGDGTLANMEYILQATGNAATGVTWTTTCKGTDASLFPANFCGSVTQ
notes: also called PE-PilA fusion non His-tagged protein
With B1, the binding result is “binds”.
